Test results reported in article PMC10786891, “Massively parallel profiling of RNA-targeting CRISPR-Cas13d”.

T1: EsCas13d, nuclease-dead (Eubacterium siraeum, UniProt B0MS50, R295A;H300A;R849A;H854A)
T1 sequence: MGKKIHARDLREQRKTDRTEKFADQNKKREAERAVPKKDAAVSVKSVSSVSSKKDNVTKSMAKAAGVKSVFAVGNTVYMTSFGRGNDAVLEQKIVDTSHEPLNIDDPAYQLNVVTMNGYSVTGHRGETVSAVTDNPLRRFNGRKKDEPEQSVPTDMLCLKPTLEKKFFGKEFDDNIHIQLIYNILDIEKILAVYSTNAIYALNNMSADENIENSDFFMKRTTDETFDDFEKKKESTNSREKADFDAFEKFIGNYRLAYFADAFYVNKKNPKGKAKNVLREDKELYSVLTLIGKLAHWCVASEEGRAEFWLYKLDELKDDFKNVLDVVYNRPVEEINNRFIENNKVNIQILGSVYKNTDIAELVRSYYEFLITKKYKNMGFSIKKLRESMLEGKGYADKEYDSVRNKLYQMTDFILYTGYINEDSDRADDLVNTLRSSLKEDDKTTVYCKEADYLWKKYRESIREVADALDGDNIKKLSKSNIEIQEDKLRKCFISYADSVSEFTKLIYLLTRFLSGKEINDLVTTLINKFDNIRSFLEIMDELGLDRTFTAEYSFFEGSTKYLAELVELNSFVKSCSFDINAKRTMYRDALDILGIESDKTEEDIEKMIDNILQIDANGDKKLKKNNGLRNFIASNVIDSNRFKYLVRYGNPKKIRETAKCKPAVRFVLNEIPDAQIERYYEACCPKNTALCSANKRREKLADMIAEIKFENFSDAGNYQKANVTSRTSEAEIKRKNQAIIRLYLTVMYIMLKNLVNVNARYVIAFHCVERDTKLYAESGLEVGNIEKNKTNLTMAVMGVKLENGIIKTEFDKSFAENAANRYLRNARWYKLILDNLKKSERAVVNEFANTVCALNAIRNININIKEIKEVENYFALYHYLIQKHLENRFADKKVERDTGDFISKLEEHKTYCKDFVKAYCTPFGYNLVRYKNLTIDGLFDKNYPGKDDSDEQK

B1: target 1 insC 3' of 17,insA 3' of 8 (mixed)
RNA 1: CACCCGUGCAAAAAUGCAGGGGUCUAAAACUGAGCGGAUAACCUCUCUAUGG
RNA 2: GGGAAUGGAUCCACAUCUACGAAUUCGUACCAUAGCAGAGGUUAUACCGCUCACCGAGAUCGGAAGAGCACACGU
B2: target 1 C6U,U19A (mixed)
RNA 1: CACCCGUGCAAAAAUGCAGGGGUCUAAAACUGAGCGGAUAACCUCUCUAUGG
RNA 2: GGGAAUGGAUCCACAUCUACGAAUUCGUACCAAAGAGAGGUUAUCUGCUCACCGAGAUCGGAAGAGCACACGU
B3: target 1 C7G,U19C (mixed)
RNA 1: CACCCGUGCAAAAAUGCAGGGGUCUAAAACUGAGCGGAUAACCUCUCUAUGG
RNA 2: GGGAAUGGAUCCACAUCUACGAAUUCGUACCACAGAGAGGUUAUGCGCUCACCGAGAUCGGAAGAGCACACGU
B4: target 1 C7A,A20C (mixed)
RNA 1: CACCCGUGCAAAAAUGCAGGGGUCUAAAACUGAGCGGAUAACCUCUCUAUGG
RNA 2: GGGAAUGGAUCCACAUCUACGAAUUCGUACCCUAGAGAGGUUAUACGCUCACCGAGAUCGGAAGAGCACACGU
B5: target 1 C2A,G17C (mixed)
RNA 1: CACCCGUGCAAAAAUGCAGGGGUCUAAAACUGAGCGGAUAACCUCUCUAUGG
RNA 2: GGGAAUGGAUCCACAUCUACGAAUUCGUACCAUACAGAGGUUAUCCGCUAACCGAGAUCGGAAGAGCACACGU
B6: target 1 C21A (mixed)
RNA 1: CACCCGUGCAAAAAUGCAGGGGUCUAAAACUGAGCGGAUAACCUCUCUAUGG
RNA 2: GGGAAUGGAUCCACAUCUACGAAUUCGUACAAUAGAGAGGUUAUCCGCUCACCGAGAUCGGAAGAGCACACGU
B7: target 1 insU 3' of 21,insU 3' of 14 (mixed)
RNA 1: CACCCGUGCAAAAAUGCAGGGGUCUAAAACUGAGCGGAUAACCUCUCUAUGG
RNA 2: GGGAAUGGAUCCACAUCUACGAAUUCGUACCUAUAGAGAUGGUUAUCCGCUCACCGAGAUCGGAAGAGCACACGU
B8: target 1 C7U,U11G (mixed)
RNA 1: CACCCGUGCAAAAAUGCAGGGGUCUAAAACUGAGCGGAUAACCUCUCUAUGG
RNA 2: GGGAAUGGAUCCACAUCUACGAAUUCGUACCAUAGAGAGGGUAUUCGCUCACCGAGAUCGGAAGAGCACACGU
B9: target 1 insU 3' of 12 (mixed)
RNA 1: CACCCGUGCAAAAAUGCAGGGGUCUAAAACUGAGCGGAUAACCUCUCUAUGG
RNA 2: GGGAAUGGAUCCACAUCUACGAAUUCGUACCAUAGAGAGGUUUAUCCGCUCACCGAGAUCGGAAGAGCACACGU
B10: target 1 insG 3' of 14,insG 3' of 11 (mixed)
RNA 1: CACCCGUGCAAAAAUGCAGGGGUCUAAAACUGAGCGGAUAACCUCUCUAUGG
RNA 2: GGGAAUGGAUCCACAUCUACGAAUUCGUACCAUAGAGAGGGUGUAUCCGCUCACCGAGAUCGGAAGAGCACACGU
B11: target 1 insC 3' of 11,insC 3' of 3 (mixed)
RNA 1: CACCCGUGCAAAAAUGCAGGGGUCUAAAACUGAGCGGAUAACCUCUCUAUGG
RNA 2: GGGAAUGGAUCCACAUCUACGAAUUCGUACCAUAGAGAGGUCUAUCCGCUCCACCGAGAUCGGAAGAGCACACGU
B12: target 1 G13U,A20C (mixed)
RNA 1: CACCCGUGCAAAAAUGCAGGGGUCUAAAACUGAGCGGAUAACCUCUCUAUGG
RNA 2: GGGAAUGGAUCCACAUCUACGAAUUCGUACCCUAGAGAUGUUAUCCGCUCACCGAGAUCGGAAGAGCACACGU
B13: target 1 C6U,U11C (mixed)
RNA 1: CACCCGUGCAAAAAUGCAGGGGUCUAAAACUGAGCGGAUAACCUCUCUAUGG
RNA 2: GGGAAUGGAUCCACAUCUACGAAUUCGUACCAUAGAGAGGCUAUCUGCUCACCGAGAUCGGAAGAGCACACGU
B14: target 1 A1G,G12U (mixed)
RNA 1: CACCCGUGCAAAAAUGCAGGGGUCUAAAACUGAGCGGAUAACCUCUCUAUGG
RNA 2: GGGAAUGGAUCCACAUCUACGAAUUCGUACCAUAGAGAGUUUAUCCGCUCGCCGAGAUCGGAAGAGCACACGU
B15: target 1 insA 3' of 5,insG 3' of 3 (mixed)
RNA 1: CACCCGUGCAAAAAUGCAGGGGUCUAAAACUGAGCGGAUAACCUCUCUAUGG
RNA 2: GGGAAUGGAUCCACAUCUACGAAUUCGUACCAUAGAGAGGUUAUCCGACUGCACCGAGAUCGGAAGAGCACACGU
B16: target 1 U8C,U19G (mixed)
RNA 1: CACCCGUGCAAAAAUGCAGGGGUCUAAAACUGAGCGGAUAACCUCUCUAUGG
RNA 2: GGGAAUGGAUCCACAUCUACGAAUUCGUACCAGAGAGAGGUUACCCGCUCACCGAGAUCGGAAGAGCACACGU
B17: target 1 G12U (mixed)
RNA 1: CACCCGUGCAAAAAUGCAGGGGUCUAAAACUGAGCGGAUAACCUCUCUAUGG
RNA 2: GGGAAUGGAUCCACAUCUACGAAUUCGUACCAUAGAGAGUUUAUCCGCUCACCGAGAUCGGAAGAGCACACGU
B18: target 1 insU 3' of 5,insU 3' of 5 (mixed)
RNA 1: CACCCGUGCAAAAAUGCAGGGGUCUAAAACUGAGCGGAUAACCUCUCUAUGG
RNA 2: GGGAAUGGAUCCACAUCUACGAAUUCGUACCAUAGAGAGGUUAUCCGUUCUCACCGAGAUCGGAAGAGCACACGU
B19: target 1 A14G,G17U (mixed)
RNA 1: CACCCGUGCAAAAAUGCAGGGGUCUAAAACUGAGCGGAUAACCUCUCUAUGG
RNA 2: GGGAAUGGAUCCACAUCUACGAAUUCGUACCAUAUAGGGGUUAUCCGCUCACCGAGAUCGGAAGAGCACACGU
B20: target 1 insU 3' of 7,insU 3' of 6 (mixed)
RNA 1: CACCCGUGCAAAAAUGCAGGGGUCUAAAACUGAGCGGAUAACCUCUCUAUGG
RNA 2: GGGAAUGGAUCCACAUCUACGAAUUCGUACCAUAGAGAGGUUAUCUCUGCUCACCGAGAUCGGAAGAGCACACGU
B21: target 1 insA 3' of 15 (mixed)
RNA 1: CACCCGUGCAAAAAUGCAGGGGUCUAAAACUGAGCGGAUAACCUCUCUAUGG
RNA 2: GGGAAUGGAUCCACAUCUACGAAUUCGUACCAUAGAGAAGGUUAUCCGCUCACCGAGAUCGGAAGAGCACACGU
B22: target 1 C4A,G13U (mixed)
RNA 1: CACCCGUGCAAAAAUGCAGGGGUCUAAAACUGAGCGGAUAACCUCUCUAUGG
RNA 2: GGGAAUGGAUCCACAUCUACGAAUUCGUACCAUAGAGAUGUUAUCCGAUCACCGAGAUCGGAAGAGCACACGU
B23: target 1 C4U,U11G (mixed)
RNA 1: CACCCGUGCAAAAAUGCAGGGGUCUAAAACUGAGCGGAUAACCUCUCUAUGG
RNA 2: GGGAAUGGAUCCACAUCUACGAAUUCGUACCAUAGAGAGGGUAUCCGUUCACCGAGAUCGGAAGAGCACACGU
B24: target 1 A1C,G12U (mixed)
RNA 1: CACCCGUGCAAAAAUGCAGGGGUCUAAAACUGAGCGGAUAACCUCUCUAUGG
RNA 2: GGGAAUGGAUCCACAUCUACGAAUUCGUACCAUAGAGAGUUUAUCCGCUCCCCGAGAUCGGAAGAGCACACGU

Target: T1, EsCas13d, nuclease-dead
Test: crRNA (strand 1, pre-loaded); Mg2+; 40 mM Tris-HCl pH 7.5, 150 mM NaCl, 6 mM MgCl2, 1 mM DTT, 0.1% Tween-20, 0.2 mg/ml BSA; 25 C; 10 min per concentration, then washed
Conditions: tags: His6-TwinStrep-SUMO cleaved; N-terminal SNAP kept (SNAP-Surface 488); label: 3' end held by stalled T7 RNA polymerase

Row | Binder | Kd
1 | B1 | 52 ± 7 nM
2 | B2 | 34.9 ± 2.4 nM
3 | B3 | 32.2 ± 2.7 nM
4 | B4 | 61 ± 22 nM
5 | B5 | 57 ± 5 nM
6 | B6 | 24.1 ± 2 nM
7 | B7 | 45 ± 9 nM
8 | B8 | 9.7 ± 0.6 nM
9 | B9 | 7.54 ± 0.28 nM
10 | B10 | 20.7 ± 0.9 nM
11 | B11 | 28.9 ± 2.7 nM
12 | B12 | ~90 nM
13 | B13 | 9.1 ± 0.6 nM
14 | B14 | 9.4 ± 0.6 nM
15 | B15 | 5.94 ± 0.29 nM
16 | B16 | 76 ± 10 nM
17 | B17 | 10.3 ± 0.5 nM
18 | B18 | 19 ± 4 nM
19 | B19 | 78 ± 15 nM
20 | B20 | 55 ± 4 nM
21 | B21 | 5.9 ± 0.6 nM
22 | B22 | ~70 nM
23 | B23 | 21 ± 4 nM
24 | B24 | 13.9 ± 2.1 nM
